What all share (assay): SPOT alanine scanning, spot intensity
Assay [1] has as its target HER3 peptide 342-356 … with Asp352 replaced by alanine (human).
Assay [2] has as its target HER3 peptide 343-357 … with Asp352 replaced by alanine (human).
Assay [3] has as its target alanine analogs at Pro353 and Ile357 of the HER3 pentadecapeptides 342-356, 343-357 and 344-358.
Assay [4] concerns the target HER3 peptide 344-358 … with Asp352 replaced by alanine (human).

B1: mAb H4B-121 (purified human IgG) (antibody, V domains shown)
VH: EVQLVESGGGLVQPGRSLRLSCAASGFTFDDYAMHWVRQAPGKGLEWVSGISWNSGSIGYADSVKGRFTISRDNAKNSLYLQMNSLRAEDTAVYYCAREGQWPNYGMDVWGQGTTVTVSS
VL: QSVLTQPPSVSAAPGQKVTISCPGSSSNIGNNYVSWYQQLPGTAPKLLIYDNNERPSGIPDRFSGSTSGTSATLDITDLQAEDEATYYCGAWDNTLGVYVLGTGTQLTVL
As to B1, the decrease in binding capacity against the unmodified peptide in assay [1], in assay [2] and in assay [4] was 92% in each case. Besides, the decrease in antibody reactivity against the unmodified peptide in assay [3] lay in the range of 40 to 60%.

The values above are taken from patent US20140141019A1.
